Test results from patent US20020127673A1 (REGENTS OF THE UNIVERSITY OF MICHIGAN, published 2002).

B1: Nod2 lacking the LRRs (Nod2 1-744) (other)
chain: MGEEGGSASHDEEERASVLLGHSPGCEMCSQEAFQAQRSQLVELLVSGSLEGFESVLDWLLSWEVLSWEDYEGFHLLGQPLSHLARRLLDTVWNKGTWACQKLIAAAQEAQADSQSPKLHGCWDPHSLHPARDLQSHRPAIVRRLHSHVENMLDLAWERGFVSQYECDEIRLPIFTPSQRARRLLDLATVKANGLAAFLLQHVQELPVPLALPLEAATCKKYMAKLRTTVSAQSRFLSTYDGAETLCLEDIYTENVLEVWADVGMAGPPQKSPATLGLEELFSTPGHLNDDADTVLVVGEAGSGKSTLLQRLHLLWAAGQDFQEFLFVFPFSCRQLQCMAKPLSVRTLLFEHCCWPDVGQEDIFQLLLDHPDRVLLTFDGFDEFKFRFTDRERHCSPTDPTSVQTLLFNLLQGNLLKNARKVVTSRPAAVSAFLRKYIRTEFNLKGFSEQGIELYLRKRHHEPGVADRLIRLLQETSALHGLCHLPVFSWMVSKCHQELLLQEGGSPKTTTDMYLLILQHFLLHATPPDSASQGLGPSLLRGRLPTLLHLGRLALWGLGMCCYVFSAQQLQAAQVSPDDISLGFLVRAKGVVPGSTAPLEFLHITFQCFFAAFYLALSADVPPALLRHLFNCGRPGNSPMARLLPTMCIQASEGKDSSVAALLQKAEPHNLQITAAFLAGLLSREHWGLLAECQTSEKALLRHQACARWCLARSLRKHFHSIPPAAPGEAKSVHAMPGFIWLIR
notes: also called Nod2ΔLRR
B2: caspase-4 (enzyme, UniProt P49662 1-377, looked up)
chain: MAEGNHRKKPLKVLESLGKDFLTGVLDNLVEQNVLNWKEEEKKKYYDAKTEDKVRVMADSMQEKQRMAGQMLLQTFFNIDQISPNKKAHPNMEAGPPESGESTDALKLCPHEEFLRLCKERAEEIYPIKERNNRTRLALIICNTEFDHLPPRNGADFDITGMKELLEGLDYSVDVEENLTARDMESALRAFATRPEHKSSDSTFLVLMSHGILEGICGTVHDEKKPDVLLYDTIFQIFNNRNCLSLKDKPKVIIVQACRGANRGELWVRDSPASLEVASSQSSENLEEDAVYKTHVEKDFIAFCSSTPHNVSWRDSTMGSIFITQLITCFQKYSWCCHLEEVFRKVQQSFETPRAKAQMPTIERLSMTRYFYLFPGN
notes: Construct and tag not described
B3: procaspase-9 (enzyme, UniProt P55211 1-416, looked up)
chain: MDEADRRLLRRCRLRLVEELQVDQLWDALLSRELFRPHMIEDIQRAGSGSRRDQARQLIIDLETRGSQALPLFISCLEDTGQDMLASFLRTNRQAAKLSKPTLENLTPVVLRPEIRKPEVLRPETPRPVDIGSGGFGDVGALESLRGNADLAYILSMEPCGHCLIINNVNFCRESGLRTRTGSNIDCEKLRRRFSSLHFMVEVKGDLTAKKMVLALLELAQQDHGALDCCVVVILSHGCQASHLQFPGAVYGTDGCPVSVEKIVNIFNGTSCPSLGGKPKLFFIQACGGEQKDHGFEVASTSPEDESPGSNPEPDATPFQEGLRTFDQLDAISSLPTPSDIFVSYSTFPGFVSWRDPKSGSWYVETLDDIFEQWAHSEDLQSLLLRVANAVSVKGIYKQMPGCFNFLRKKLFFKTS
notes: as for B2
B4: Bcl-10 (other, UniProt O95999 1-233, looked up)
chain: MEPTAPSLTEEDLTEVKKDALENLRVYLCEKIIAERHFDHLRAKKILSREDTEEISCRTSSRKRAGKLLDYLQENPKGLDTLVESIRREKTQNFLIQKITDEVLKLRNIKLEHLKGLKCSSCEPFPDGATNNLSRSNSDESNFSEKLRASTVMYHPEGESSTTPFFSTNSSLNLPVLEVGRTENTIFSSTTLPRPGDPGAPPLPPDLQLEEEGTCANSSEMFLPLRSRTVSRQ
notes: as for B2

How the values were obtained:
[1] = biological target: the molecule itself; experiment: not described ('our observations')
HA-tagged wild-type Nod2 = biological target: T1, HA-tagged wild-type Nod2 (human, UniProt Q9HC29 1-1040); experiment: co-immunoprecipitation from co-transfected HEK293T cells
T1 construct: Expressed by transfection in HEK293T cells and tested in cell lysates; also called wt Nod2; pcDNA3-Nod2-HA; not shown: HA tag
From the text: The CARD motif functions as an effector domain that mediates specific homophilic interaction with downstream CARD-containing molecules (Hofmann et al., Trends Biochem. Sci. 22: 155-156 [1997]).

| Binder | binding result [1] | binding result (HA-tagged wild-type Nod2) |
| --- | --- | --- |
| B1 | binds | – |
| B2 | – | no binding |
| B3 | – | no binding |
| B4 | – | no binding |
